Data published in publication PMC11271267.

Target: MetCb purified individually (Aminobacter sp. strain NyZ550)
Assay: not stated; purified MetCb alone in solution; experiment not described

stoichiometry N: 6
Substance: MetCb purified individually (natural protein)
